In paper PMC12846278, “Efficient Expression of Lactone Hydrolase Cr2zen for Scalable Zearalenone Degradation in Pichia pastoris” (Toxins, 2025):

Test system: T1, C[C@H]1CCCC(=O)CCC/C=C/c2cc(O)cc(O)c2C(=O)O1
T1 construct: full-length ORF (792 bp, 264 aa, 29 kDa) in pPICZalphaA with alpha-factor secretion signal, secreted from Pichia pastoris X33; ~35 kDa band for Ser-Cr2
Test: HPLC, ZEN degradation; Lineweaver-Burk
Type: biochemical, Clonostachys rosea
Details: 20 mM Tris-HCl pH 8.0, 30 °C

Substance: Cr2zen (Clonostachys rosea)
- Km: 75.9 ± 2.1 µM
